Assay results reported in IntAct's records for PubMed 16938345.

B1: Linker for activation of T-cells family member 1 (Homo sapiens), O43561 (parent)
chain: MEEAILVPCVLGLLLLPILAMLMALCVHCHRLPGSYDSTSSDSLYPRGIQFKRPHTVAPWPPAYPPVTSYPPLSQPDLLPIPRSPQPLGGSHRTPSSRRDSDGANSVASYENEGASGIRGAQAGWGVWGPSWTRLTPVSLPPEPACEDADEDEDDYHNPGYLVVLPDSTPATSTAAPSAPALSTPGIRDSAFSMESIDDYVNVPESGESAEASLDGSREYVNVSQELHPGAAKTEPAALSSQEAEEVEEEGAPDYENLQELN

Variants of: B1
Conditions: with grb2_human GRB2, P62993

effect of a mutation on the interaction | Variant
decreasing interaction | MEEAILVPCVLGLLLLPILAMLMALCVHCHRLPGSYDSTSSDSLYPRGIQFKRPHTVAPWPPAYPPVTSYPPLSQPDLLPIPRSPQPLGGSHRTPSSRRDSDGANSVASYENEGASGIRGAQAGWGVWGPSWTRLTPVSLPPEPACEDADEDEDDYHNPGYLVVLPDSTPATSTAAPSAPALSTPGIRDSAFSMESIDDFVNVPESGESAEASLDGSREFVNVSQELHPGAAKTEPAALSSQEAEEVEEEGAPDYENLQELN [Y200F;Y220F]
